# From patent US10494417B2, “Peptide inhibitors of BCR-ABL oligomerization” (University of Utah Research Foundation, priority 2014, dated 2019)
# “Also recorded” adds a separate entry of the source.
# Key:
# [1] = tested on: CD34+ cells from newly diagnosed CML patients; assay: Colony forming assay of CD34+ cells from newly diagnosed CML patients; assay type: cell-based, human; details: for colony formation, in words: day 14 CFU-GM, lentiviral CCmut3 or 2.5 μM imatinib vs EV
# Description: Primary cells were seeded in Methocult H4230 (Stem Cell Technologies) as described previously (Fleischman, A. G., et al. (2011). Blood 118, 6392-6398). Briefly, lentivirus-infected (GFP^+) cells were isolated by FACS and resuspended in RPMI1640. Cells were plated in Methocult H4230 at 1,000 cells/mL supplemented with 1× StemSpan CC100 cytokine mix (StemCell Technologies) with or without TKI as indicated in each experiment. Plates were incubated at 37° C. in a 5% CO2 humidified incubator for 14 days. Colony forming units of granulocyte-macrophage (CFU-GM) were counted on day 14 using an inverted microscope.
# Following selection of transfected cells by cell sorting, methylcellulose colony assays were performed by plating in 0.9% methylcellulose (Stem Cell Technologies; M3234 for Ba/F3 BCR-ABL1 native and mutant lines; M3434 for Ba/F3 parental cells; H4230 for CML patient samples). mCherry-positive Ba/F3 cells (1.1×10^3 cells/plate) or GFP-positive primary CML CD34+ cells (1×10^3 cells/plate) were seeded per dish in duplicate. In the case of CML patient samples, cells were plated in the presence of 1× StemSpan CC100 cytokine cocktail (StemCell Technologies). All cells were plated with or without the indicated TKI in three or more independent experiments. Plates were incubated at 37° C. in a 5% CO2 humidified incubator. Colonies were counted 7-14 days later in an area of 50 μm2 per dish using an inverted microscope.
# [2] = tested on: Ba/F3 cells expressing BCR-ABL1E255V/T315I; assay: Proliferation of transfected Ba/F3 BCR-ABL1 E255V/T315I cells (MTS assay); assay type: cell-based, mouse; details: MTS assay at 72 and 96 h, CCmut3 vs EV
# Description: Stable recombinant Ba/F3 cells transduced with wild type p210 BCR-ABL1 (Daley, G. Q., et al. (1991) Proc. Natl. Acad. Sci. U.S.A. 88, 11335-11338), the kinase domain mutants p210^T315I p210^[…], or the compound mutant p210^E255V/T315I were as previously described (La Rosee, P., et al. (2002) Cancer Res. 62, 7149-7153; O'Hare, T., et al. (2004) Blood 104, 2532-2539). These cells were cultured in RPMI with 10% FBS, 1% penicillin, streptomycin, glutamine, and 0.1% gentamycin (RPMI1640). Additionally 0.1% MycoZap™ (Lonza Bio, Basel, Switzerland) was added to prevent mycoplasma contamination. […]
# Cell proliferation was assessed using the CellTiter 96® AQueous One Solution Cell Proliferation Assay (MTS assay, Promega) according to manufacturer instructions. […] In some experiments, cell proliferation was assessed using a Neubauer chamber and trypan blue dye exclusion. […]
# Cell proliferation was assessed using a […] viability assay (MTS assay) utilizing CellTiter 96® AQueous One Solution Cell Proliferation Assay (Promega) according to manufacturer instructions. […] Cell growth was assessed by MTS assay at 72 and 96 h. […] In patient sample experiments, cell proliferation was assessed by trypan blue exclusion.
# [3] = tested on: CML CD34+ cells expressing BCR-ABL1T315I; assay: Colony forming assay of primary CML CD34+ cells expressing BCR-ABL1T315I (samples R1, R2); assay type: cell-based, human
# Description: Mononuclear cells (MNCs) were separated from the peripheral blood of patients with newly diagnosed or therapy-resistant CML with a documented T315I mutation, using Ficoll (Nycomed, Oslo, Norway). Isolation of the CD34^+ fraction was done on an autoMACS Pro (Miltenyi Biotech). […] Cells were infected with lentivirus at a multiplicity of infection (MOI) of 5 for each construct at 24 and 48 hours following harvest (fresh cells) or thaw (frozen cells). Cells were sorted on a BD FACSAria cytometer after 72 h, and GFP-positive cells were returned to culture medium for future experiments. All patients gave their informed consent in accordance with the Declaration of Helsinki, and all studies with human specimens were approved by The University of Utah Institutional Review Board (IRB).
# Briefly, lentivirus-infected (GFP^+) cells were isolated by FACS and resuspended in RPMI1640. […] Plates were incubated at 37° C. in a 5% CO2 humidified incubator for 14 days. Colony forming units of granulocyte-macrophage (CFU-GM) were counted on day 14 using an inverted microscope.
# All cells were plated with or without the indicated TKI in three or more independent experiments. Plates were incubated at 37° C. in a 5% CO2 humidified incubator. Colonies were counted 7-14 days later in an area of 50 μm2 per dish using an inverted microscope.
# [4] = sample R1 (accelerated phase), lentiviral CCmut3 or 10 nM ponatinib vs EV
molecule,measurement,setting,value
"CCmut3: modified Bcr-Abl coiled-coil domain (residues 1-72) with mutations C38A, K39E, S41R, L45D, E48R, Q60E (protein) MVDPVGFAEAWKAQFPDSEPPRMELRSVGDIEQELERAEARIRRDEQRVNQERFRMIYLETLLAKEKKSYDR","colony formation, in words",[1],equally effective in reducing colony number
same,"colony formation, in words",[1]; listed as CC^mut3,reduced to similar degree
same,inhibition of colony formation,"[1]; four newly diagnosed patient samples, day 14, normalized to EV",~60%
same,"proliferation, in words",[2],small yet significant growth reduction at 96 h but not 72 h; also recorded: significantly reduced proliferation of compound mutant cells at 96 h
same,"proliferation, in words",[2]; listed as CC^mut3,significant growth reduction at 96 h; also recorded: smaller yet significant reduction in proliferation at 96 h
same,"colony formation, in words",[3]; [4],even greater sensitivity to transduction with CCmut3
same,reduction of colony formation,[3]; [4],76%
same,"colony formation, in words","[3]; sample R1 (accelerated phase), lentiviral CCmut3 or 10 nM ponatinib vs EV, listed as CC^mut3",reduced colony formation to a similar degree
same,"colony formation, in words","[3]; sample R2 (blast crisis, after ponatinib failure), lentiviral CCmut3 or ponatinib vs EV",only minimal activity
same,"colony formation, in words","[3]; sample R2 (blast crisis, after ponatinib failure), lentiviral CCmut3 or ponatinib vs EV, listed as CC^mut3",insensitive
same,reduction of colony formation,"[3]; sample R2 (blast crisis, after ponatinib failure), lentiviral CCmut3 vs EV",~25%
